Data set [1] deals with the molecule itself. Put plainly: loss of 1D 1H NMR signal on change of pH; Nup98^FG (200 μM) or Nup98^FG85 (100 μM) in 50 mM sodium phosphate, 1 mM TCEP, 0.01% NaN3, 5% D2O; pH 3, adjusted to pH 7, then back to pH 3 and 30 min at 65 °C.
Data set [2] concerns the molecule itself. Put plainly: cryo-EM structure; amyloid fibrils of Nup98^FG85: peptide dissolved in pure water at 1.5 mM, incubated at 25 °C for 1 h; helical reconstruction of four polymorphs (pm1-pm4).
Data set [3] concerns the molecule itself. Put plainly: time-dependent loss of NMR signal (self-association/aggregation); synthetic Nup98 peptides alone in solution; propensity = difference between the NMR signal expected for the peptide concentration and that observed after 1 day of incubation at 5 °C (Fig. 2c); kinetics of 95-124 and its mutants in Supplementary Fig. 5.
Data set [4] concerns the molecule itself. Put plainly: aggregation of NMR assignment samples; 2 mM peptide in 50 mM sodium phosphate, 0.01% NaN3, 5% D2O, pH 6.8; NMR at 5 °C.

B1: FG-repeat domain of human Nup98 (Nup98^FG, residues 1–384) (domain or fragment, UniProt P52948 1-384, looked up)
chain: MFNKSFGTPFGGGTGGFGTTSTFGQNTGFGTTSGGAFGTSAFGSSNNTGGLFGNSQTKPGGLFGTSSFSQPATSTSTGFGFGTSTGTANTLFGTASTGTSLFSSQNNAFAQNKPTGFGNFGTSTSSGGLFGTTNTTSNPFGSTSGSLFGPSSFTAAPTGTTIKFNPPTGTDTMVKAGVSTNISTKHQCITAMKEYESKSLEELRLEDYQANRKGPQNQVGAGTTTGLFGSSPATSSATGLFSSSTTNSGFAYGQNKTAFGTSTTGFGTNPGGLFGQQNQQTTSLFSKPFGQATTTQNTGFSFGNTSTIGQPSTNTMGLFGVTQASQPGGLFGTATNTSTGTAFGTGTGLFGQTNTGFGAVGSTLFGNNKLTTFGSSTTSAPSFG
notes: human nucleoporin 98 (Nup98), amino-terminal 384 residues (FG-repeat domain), in pET28a between NheI and XhoI; The methods describe no step that cleaves the His tag; also called 384-residue Nup98^FG domain; source: E. coli BL21(DE3), purified from the pellet in urea (Ni-NTA, two SEC steps)
On to B1, for which, in data set [1], the binding result is on record as “binds”.

B2: Nup98^FG85 (residues 85–124 of human Nup98) (peptide, UniProt P52948 85-124, looked up)
peptide: TGTANTLFGTASTGTSLFSSQNNAFAQNKPTGFGNFGTST
notes: It forms amyloid fibrils of indefinite length with 3 (pm1) or 2 (pm2-pm4) protofilaments; also called Nup98^FG85 segment; source: synthetic peptide (solid-phase synthesis, Genscript)
Take B2: the binding result in data set [2] is on record as “binds”.

B3: Nup98(95–124) peptide with F117 and F120 replaced by serine (peptide, UniProt P52948 95-124, looked up)
peptide: ASTGTSLFSSQNNAFAQNKPTGSGNSGTST
notes: also called phenylalanine-to-serine mutant peptide; source: synthetic peptide (solid-phase synthesis, Genscript)
Turning to B3, in data set [3], the binding result is reported as “binds”.

B4: Nup98(298–327) peptide (peptide, UniProt P52948 298-327, looked up)
peptide: Ac-TGFSFGNTSTIGQPSTNTMGLFGVTQASQP-NH2
notes: human nucleoporin 98 (Nup98), residues 298-327; source: synthetic peptide (solid-phase synthesis, Genscript)
Regarding B4, in data set [4], the binding result is recorded as “binds”.

B5: Nup98(345–384) peptide (peptide, UniProt P52948 345-384, looked up)
peptide: Ac-TGTGLFGQTNTGFGAVGSTLFGNNKLTTFGSSTTSAPSFG-NH2
notes: human nucleoporin 98 (Nup98), residues 345-384; source: synthetic peptide (solid-phase synthesis, Genscript)
As to B5, the binding result in data set [4] was “binds”.

B6: Nup98(95–124) peptide with Q105 and Q111 replaced by serine (peptide, UniProt P52948 95-124, looked up)
peptide: ASTGTSLFSSSNNAFASNKPTGFGNFGTST
notes: also called glutamine-to-serine mutant peptide; source: synthetic peptide (solid-phase synthesis, Genscript)
As for B6, the binding result in data set [3] is listed as “binds”.

B7: Nup98(95–124) peptide (peptide, UniProt P52948 95-124, looked up)
peptide: Ac-ASTGTSLFSSQNNAFAQNKPTGFGNFGTST-NH2
notes: source: synthetic peptide (solid-phase synthesis, Genscript)
Regarding B7, the binding result in data set [3] is recorded as “binds”.
